Measurements: US12187779B2 (dated 2025)

Molecular target: T1, HPV 16 E6 peptide on HLA-A*02:01 (human)
T1 peptide: TIHDIILECV
Test: multimer staining

B1: E6 TCR (TCR, V domains shown)
Valpha: GQQLNQSPQSMFIQEGEDVSMNCTSSSIFNTWLWYKQDPGEGPVLLIALYKAGELTSNGRLTAQFGITRKDSFLNISASIPSDVGIYFCAGHPSSNSGYALNFGKGTSLLVTP
Vbeta: GAGVSQSPRYKVTKRGQDVALRCDPISGHVSLYWYRQALGQGPEFLTYFNYEAQQDKSGLPNDRFSAERPEGSISTLTIQRTEQRDSAMYRCASSSQTGARTDTQYFGPGTRLTVL
B1: recognises.
